B1: human non-receptor tyrosine PTPase TC-PTP (protein)
chain: MPTTIEREFEELDTQRRWQPLYLEIRNESHDYPHRVAKFPENRNRNRYRDVSPYDHSRVKLQNAENDYINASLVDIEEAQRSYILTQGPLPNTCCHFWLMVWQQKTKAVVMLNRIVEKESVKCAQYWPTDDQEMLFKETGFSVKLLSEDVKSYYTVHLLQLENINSGETRTISHFHYTTWPDFGVPESPASFLNFLFKVRESGSLNPDHGPAVIHCSAGIGRSGTFSLVDTCLVLMEKGDDINIKQVLLNMRKYRMGLIQTPDQLRFSYMAIIEGAKCIKGDSSIQKRWKELSKEDLSPAFDHSPNKIMTEKYNGNR
B2: bacterial lambda PTPase (protein)
chain: MRYYEKIDGSKYRNIWVVGDLHGCYTNLMNKLDTIGFDNKKDLLISVGDLVDRGAENVECLELITFPWFRAVRGNHEQMMIDGLSERGNVNHWLLNGGGWFFNLDYDKEILAKALAHKADELPLIIELVSKDKKYVICHADYPFDEYEFGKPVDHQQVIWNRERISNSQNGIVKEIKGADTFIFGHTPAVKPLKFANQMYIDTGAVFCGNLTLIQVQGEGA

Biological target: JAK2 immunoprecipitated from BMMC lysates (tyrosine-phosphorylated), Q62120
Sequence (Q62120 whole entry): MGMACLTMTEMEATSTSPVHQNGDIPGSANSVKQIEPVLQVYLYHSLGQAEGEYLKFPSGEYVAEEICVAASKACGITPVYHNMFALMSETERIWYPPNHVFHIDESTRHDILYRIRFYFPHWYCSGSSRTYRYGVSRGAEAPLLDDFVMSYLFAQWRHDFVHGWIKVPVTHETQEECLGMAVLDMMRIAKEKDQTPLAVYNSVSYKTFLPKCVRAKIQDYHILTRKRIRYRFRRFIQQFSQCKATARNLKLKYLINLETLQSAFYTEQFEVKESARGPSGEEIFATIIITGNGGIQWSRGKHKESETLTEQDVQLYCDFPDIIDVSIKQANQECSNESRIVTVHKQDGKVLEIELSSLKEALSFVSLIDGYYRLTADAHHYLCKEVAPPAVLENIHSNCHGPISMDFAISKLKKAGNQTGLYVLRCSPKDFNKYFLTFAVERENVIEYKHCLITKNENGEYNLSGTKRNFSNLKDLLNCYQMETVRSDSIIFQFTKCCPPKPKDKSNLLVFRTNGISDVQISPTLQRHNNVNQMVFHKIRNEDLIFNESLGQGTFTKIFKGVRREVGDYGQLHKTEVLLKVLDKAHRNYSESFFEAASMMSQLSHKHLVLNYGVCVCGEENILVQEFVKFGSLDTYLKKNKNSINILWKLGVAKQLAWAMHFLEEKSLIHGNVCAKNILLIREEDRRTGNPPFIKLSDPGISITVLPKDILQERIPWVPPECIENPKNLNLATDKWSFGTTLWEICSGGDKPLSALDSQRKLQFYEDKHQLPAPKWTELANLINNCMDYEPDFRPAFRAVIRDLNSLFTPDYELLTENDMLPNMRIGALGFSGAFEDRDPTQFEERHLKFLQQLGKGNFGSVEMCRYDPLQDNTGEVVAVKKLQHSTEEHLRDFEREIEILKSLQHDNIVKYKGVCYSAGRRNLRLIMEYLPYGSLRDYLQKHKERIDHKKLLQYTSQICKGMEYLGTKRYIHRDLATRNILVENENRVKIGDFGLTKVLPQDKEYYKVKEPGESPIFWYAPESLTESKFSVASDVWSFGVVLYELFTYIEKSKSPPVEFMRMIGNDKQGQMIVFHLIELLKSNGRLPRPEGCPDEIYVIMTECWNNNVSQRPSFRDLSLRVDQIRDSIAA

Protein	tyrosine dephosphorylation in vitro (phosphatase assay)
B1	the human non-receptor tyrosine PTPase TC-PTP and the bacterial lambda PTPase did not dephosphorylate JAK2 in vitro
B2	the human non-receptor tyrosine PTPase TC-PTP and the bacterial lambda PTPase did not dephosphorylate JAK2 in vitro

From patent US20030175270
